Source: US8129349B2, “Treatment of disease by inducing cell apoptosis” (The Regents of the University of California, priority 2000, dated 2012)
Marks after values point to notes of the source that are not given here.

What was measured:
[1] = system: RD (skeletal muscle cancer cells); experiment: Annexin-V binding apoptosis assay after transfection, RD cells; type: cell-based, human; conditions: annexin-V binding four hours after transfection
Description: (§1) In these experiments, C/EBPβ-Ala^217 was tested in two mesenchymal cell lines for its ability to induce apoptosis. Human mesenchymal cell lines 1321-N1 (glial cancer cells; obtained from Dr. Joan Brown, at the University of California, San Diego), RD (skeletal muscle cancer cells; ATCC Accession No. CCL-136), human fibroblasts (98VA3N cells, obtained from Dr. Jerry VanderBerg, at the Veterans Administration Medical Center, San Diego, Calif.), ES2 (ovarian cancer cell line), C3A (liver cancer cell line), and MCF-7 breast cancer cells were cultured in minimal essential medium supplemented with fetal bovine serum as known in the art (See e.g., Buck et al., EMBO J., 13:151-160 (1994)). As additional cell types find use in the present invention, it is not intended that the present invention be limited to these specific cell lines. Indeed, similar results have been obtained with other cell types (e.g., CCF-STTG1 cells (ATCC Accession No. CRL-1718)) (data not shown).
(§2) Cells were co-transfected with vectors expressing the indicator protein GFP and C/EBPβ-Ala^217 as known in the art (See, Buck et al., Mol. Cell., 4:1087-1092 (1999)). Control cells were only transfected with GFP. […]

[2] = system: 1321-N1 (glial cancer cells); experiment: Annexin-V binding apoptosis assay after transfection, 1321-N1 cells; type: cell-based, human; conditions: annexin-V binding four hours after transfection
Description: as §1, §2

[3] = system: human fibroblasts (98VA3N cells); experiment: Annexin-V binding apoptosis assay after transfection, 98VA3N cells; type: cell-based; conditions: annexin-V binding four hours after transfection
Description: as §1, §2

[4] = system: C3A (liver cancer cell line); experiment: Annexin-V binding apoptosis assay after transfection, C3A cells; type: cell-based, human; conditions: annexin-V binding four hours after transfection
Description: as §1, §2

[5] = system: ES2 (ovarian cancer cell line); experiment: Annexin-V binding apoptosis assay after transfection, ES2 cells; type: cell-based, human; conditions: annexin-V binding four hours after transfection
Description: as §1, §2

[6] = system: MCF-7 breast cancer cells; experiment: Annexin-V binding apoptosis assay after transfection, MCF-7 cells; type: cell-based, human; conditions: annexin-V binding four hours after transfection
Description: as §1, §2

[7] = system: hepatic stellate cells; experiment: Apoptosis of activated stellate cells transfected with C/EBPβ constructs, annexin-V-PE binding; type: cell-based, mouse; conditions: transfected cells on collagen type I matrix
From the text: FIG. 1 provides data showing that phosphorylation of C/EBPβ on Thr^217 is required for hepatic stellate cell survival. Panel A provides phosphopeptide maps of in vivo labeled endogenous C/EBPβ in day-4 quiescent and activated primary mouse stellate cells cultured from the time of isolation on EHS or collagen type I matrix, respectively. The arrow indicates the peptide containing Phospho-Thr^217 in activated cells. […] Panel B provides phosphopeptide maps of in vitro labeled C/EPBβ. Active p90RSK phosphorylated C/EPBβ, but not C/EBPβ-Ala^217 on Thr^217 in vitro (arrowheads). Panel C provides results for cells cultured on collagen type I transfected with MSV-C/EBPβ antisense (AS), MSV-C/EBPβ sense (S), or MSV-C/EBPβ-Ala^217 together with CMV-GFP (green fluorescent protein) and p90RSK (1 μg each), as indicated in the Figure. Four hours after transfection, annexin-V-PE binding to plasma membranes was determined. The values presented are the percentage of transfected cells (green) that were annexin-V-PE (+) (red) (P<0.05 for C/EBPβ AS, and C/EBPβ-Ala^217). Panel D provides results for cells transfected as in […] with vectors expressing dominant negative mutants for MEKK1, IκBα, or p90RSK, or treated with the proteasome inhibitor lactacystin (10 μM) (closed bars), and co-transfected with MSV-C/EBPβ-Glu^217 (1 μg each) (open bars) as indicated. Annexin-V-PE binding was determined as described for Panel A (P<0.05 for C/EBPβ-Glu^217). Panel E provides results for cells transfected as described for Panel C, with a dominant-negative p90RSK, treated with FAS (100 nM for 6 hours) or cultured in a serum-free medium for 6 hours (closed bars), and co-transfected with MSV-C/EBPβ-Glu^217 (1 μg each) (open bars), as indicated. Cell death was determined by nuclear staining with Hoechst 33342 (P<0.05 for C/EBPβ-Glu^217 in RSK mut and FAS-treated cells).
FIG. 4 provides results showing that C/EBPβ PThr^217 associates with procaspases 1 and 8, and inhibits their activation. Panel A provides schematic representations of C/EBPβ peptides. The activation (dotted bars), DNA binding (solid bars) and dimerization (hatched bars) domains are shown. […] Panel C provides results showing that C/EBPβ and procaspase 8 were detected in activated stellate cells isolated from C/EBPβ^+/+ mice by confocal microscopy using specific antibodies (Santa Cruz Biotechnology). Control C/EBPβ^−/− stellate cells were negative for C/EBPβ, positive for procaspase 8, and apoptotic. Panel D provides immunoblot results for MSV vectors expressing C/EBPβ-HA (hemagglutinin protein) peptides (0.3 μg) transfected into activated stellate cells. The expressed peptides were immunoprecipitated with anti-HA antibodies. C/EBPβ-PThr^217 was detected using a specific antibody, only in cells expressing wild-type C/EBPβ. […] RSK was associated with all C/EBPβ peptides. Neither C/EBPβ nor procaspases 1 and 8 were detected in C/EBPβ immunoprecipitates from cells expressing C/EBPβ AS. Reciprocal immunoprecipitations of procaspases and RSK confirmed these associations.
Adult male Sprague-Dawley rats and adult male C/EBPβ^+/+ and C/EBPβ^−/− (Screpanti et al., supra; and Buck et al., (1999), supra), C/EBPβ-Ala^217 and C/EBPβ-Asp^105 transgenic mice were used for the isolation of primary hepatic stellate cells (Houglum et al., supra). Primary hepatic stellate cells were isolated by collagenase/pronase perfusion and purified by a single step density Nycodenz gradient (Accurate Chemical & Scientific) as known in the art (See, Lee et al., (1995), supra). Cells were plated on type I collagen matrix (Becton Dickinson) or EHS matrix (Matrigel, Collaborative Biomedical Products). Cells were cultured with 10% fetal calf serum/10% fetal bovine serum and transfected with lipofectamine (GIBCO) for DNA vectors or with the Chariot reagent (Active Motif) for peptides (10 μM) as known in the art (See, Houglum et al., supra; and Morris et al., J. Biol. Chem., 274:24942-24946 (1999)). […]

B1: C/EBPβ-Ala^217: modified murine C/EBPβ with mutation of Thr^217 to Ala (SEQ ID NO:3), nonphosphorylatable dominant negative mutant (protein, listed as Mus musculus)
chain: MHRLLAWDAACLPPPPAAFRPMEVANFYYEPDCLAYGAKAARAAPRAPAAEPAIGEHERAIDFSPYLEPLAPAADFAAPAPAHHDFLSDLFADDYGAKPSKKPADYGYVSLGRAGAKAAPPACFPPPPPAALKAEPGFEPADCKRADDAPAMAAGFPFALRAYLGYQATPSGSSGSLSTSSSSSPPGTPSPADAKAAPAACFAGPPAAPAKAKAKKAVDKLSDEYKMRRERNNIAVRKSRDKAKMRNLETQHKVLELTAENERLQKKVEQLSRELSTLRNLFKQLPEPLLASAGHC
Apoptosis (%) [1]: 46* % | Apoptosis (%) [2]: 56* % | Apoptosis (%) [3]: 80* % | Apoptosis (%) [4]: 34* % | Apoptosis (%) [5]: 44* % | Apoptosis (%) [6]: 49* % | Effect of expressed construct on apoptosis / survival of stellate cells [7]: became apoptotic
